Assay results from patent US20150284743A1, “METHODS FOR THE ENZYMATIC PRODUCTION OF ISOPRENE FROM ISOPRENOL” (GLOBAL BIOENERGIES, priority 2012, published 2015).

Assays:
[1] = substrate: C=C(C)CCOP(=O)(O)O; assay: Isoprene production from isoprenyl monophosphate, GC/FID; assay type: biochemical, Eucalyptus globulus; details: other: isoprenyl monophosphate 0-150 mM, pH 7.5, 20 mM MgCl2, 37° C., 18 h, enzyme 4 mg/ml
Description: (§1) The genes encoding the enzymes of interest were cloned in the pET 25b(+) vector (Novagen). Nucleotide sequences encoding a chloroplast transit peptide in plant terpene synthases were removed, resulting in DNA sequences encoding the mature proteins only. […] Competent E. coli BL21(DE3) cells (Novagen) were transformed with this vector by heat shock. The transformed cells were grown with shaking (160 rpm) on ZYM-5052 auto-induction medium (Studier FW, Prot. Exp. Pur. 41, (2005), 207-234) for 6 h at 37° C. and protein expression was continued at 28° C. or 20° C. overnight (approximately 16 h). The cells were collected by centrifugation at 4° C., 10,000 rpm for 20 min and the pellets were frozen at −80° C.
The pellets from 200 ml of culture cells were thawed on ice and resuspended in 5 ml of Na2HPO4 pH 8 containing 300 mM NaCl, 5 mM MgCl2 and 1 mM DTT. […] Protein concentrations were quantified according to the Bradford method. […]
2.5 mg of the terpene synthase was added to 0.5 ml of reaction mixture. […] Gas chromatography-mass spectrometry (GC-MS) was then used to confirm the identity of the product detected by gas chromatography with flame ionization. The samples were analyzed on a Varian 3400Cx gas chromatograph equipped with Varian Saturn 3 mass selective detector. […]
Kinetic parameters of isoprene production were evaluated in the following conditions: […]

[2] = substrate: CC(C)=CCOP(=O)(O)O; assay: purified protein, by the assay type; details: other: prenyl monophosphate 0-150 mM, pH 7.5, 20 mM MgCl2, 37° C., 18 h, enzyme 2 mg/ml
[3] = substrate: CC(C)=CCO; assay: Prenol phosphorylation, pyruvate kinase/lactate dehydrogenase coupled assay (ADP release), E. coli kinase; assay type: biochemical, Escherichia coli; details: other: prenol, 5 mM ATP, pH 7.5, 37° C., enzyme 0.5 mg/ml
Description: as §1
(§2) The pellets from 200 ml of culture cells were thawed on ice and resuspended in 5 ml of Na2HPO4 pH 8 containing 300 mM NaCl, 5 mM MgCl2 and 1 mM DTT. Twenty microliters of lysonase (Novagen) were added. Cells were incubated 10 minutes at room temperature and then returned to ice for 20 minutes. Cell lysis was completed by sonication for 3×15 seconds. The bacterial extracts were then clarified by centrifugation at 4° C., 10,000 rpm for 20 min. The clarified bacterial lysates were loaded on PROTINO-1000 Ni-TED column (Macherey-Nagel) allowing adsorption of 6-His tagged proteins. Columns were washed and the enzymes of interest were eluted with 4 ml of 50 mM Na2HPO4 pH 8 containing 300 mM NaCl, 5 mM MgCl2, 1 mM DTT, 250 mM imidazole. […] Protein concentrations were quantified according to the Bradford method. […]
(§3) The purified 4-methyl-5-(2-hydroxyethyl) thiazole kinases from Escherichia coli, Bacillus subtilis, Rhizobium leguminosarum were evaluated for their ability to phosphorylate prenol. The release of ADP associated to prenol phosphorylation was quantified using the pyruvate kinase/lactate dehydrogenase coupled assay (FIG. 4). […]
(§4) Each assay was started by the addition of the enzyme at a final concentration 0.5 mg/ml and the decrease of NADH was monitored by following its absorbance at 340 nm. […]

[4] = substrate: C=C(C)CCO; assay: Isoprenol phosphorylation, pyruvate kinase/lactate dehydrogenase coupled assay (ADP release), E. coli kinase; assay type: biochemical, Escherichia coli; details: other: isoprenol 0-40 mM, 5 mM ATP, pH 7.5, 37° C., enzyme 0.025 mg/ml
Description: as §1, §2
(§5) The release of ADP that is associated with isoprenol phosphorylation was quantified using the pyruvate kinase/lactate dehydrogenase coupled assay (FIG. 4). The purified 4-methyl-5-(2-hydroxyethyl)thiazole kinases from Escherichia coli, Bacillus subtilis, Rhizobium leguminosarum were thus evaluated for their ability to phosphorylate isoprenol. […]
(§6) Each assay was started by the addition of the enzyme at a final concentration 0.025 mg/ml and the decrease of NADH was monitored by following its absorbance at 340 nm. […]

[5] = substrate: CC(C)=CCO; assay: Prenol phosphorylation, pyruvate kinase/lactate dehydrogenase coupled assay (ADP release), R. leguminosarum kinase; assay type: biochemical, Rhizobium leguminosarum; details: other: prenol, 5 mM ATP, pH 7.5, 37° C., enzyme 0.5 mg/ml
Description: as §1, §2, §3, §4

[6] = substrate: C=C(C)CCO; assay: Isoprenol phosphorylation, pyruvate kinase/lactate dehydrogenase coupled assay (ADP release), R. leguminosarum kinase; assay type: biochemical, Rhizobium leguminosarum; details: other: isoprenol 0-40 mM, 5 mM ATP, pH 7.5, 37° C., enzyme 0.025 mg/ml
Description: as §1, §2, §5, §6

[7] = substrate: C=C(C)CCO; assay: Isoprenol phosphorylation, pyruvate kinase/lactate dehydrogenase coupled assay (ADP release), B. subtilis kinase; assay type: biochemical, Bacillus subtilis; details: other: isoprenol 0-40 mM, 5 mM ATP, pH 7.5, 37° C., enzyme 0.025 mg/ml
Description: as §1, §2, §5, §6

[8] = substrate: CC(C)=CCO; assay: Prenol phosphorylation, pyruvate kinase/lactate dehydrogenase coupled assay (ADP release), B. subtilis kinase; assay type: biochemical, Bacillus subtilis; details: other: prenol, 5 mM ATP, pH 7.5, 37° C., enzyme 0.5 mg/ml
Description: as §1, §2, §3, §4

[9] = Screening for isoprene production from isoprenyl monophosphate with purified terpene synthases; assay type: biochemical; details: 10 mM isoprenyl monophosphate, 37° C., 17 h, GC-FID / GC-MS of headspace
Description: The enzymatic assays were carried out under the following conditions at 37° C.:
10 mM isoprenyl monophosphate (Sigma)
2.5 mg of the terpene synthase was added to 0.5 ml of reaction mixture. An enzyme-free control reaction was carried out in parallel. Assays were incubated at 37° C. for 17 h in a 1.5 ml sealed glass vial (Interchim) with shaking. One ml of the headspace phase was then collected and injected into a gas chromatograph Varian 430-GC chromatograph equipped with a flame ionization detector (FID). Nitrogen was used as carrier gas with a flow rate of 30 mL/min. Volatile compounds were chromatographically separated on Rtx-1 column (Restek) using an isothermal mode at 100° C. The enzymatic reaction product was identified by direct comparison with isoprene standard (Sigma). Under these GC conditions, the retention time for isoprene was 3.47 min. […] Gas chromatography-mass spectrometry (GC-MS) was then used to confirm the identity of the product detected by gas chromatography with flame ionization. The samples were analyzed on a Varian 3400Cx gas chromatograph equipped with Varian Saturn 3 mass selective detector. A mass spectrum of isoprene obtained by enzymatic conversion of isoprenyl monophosphate was similar to the one of commercial isoprene (FIG. 8).

B1: Eucalyptus globulus monoterpene synthase (UniProt Q0PCI4), SEQ ID NO: 6 (Eucalyptus globulus) (protein)
chain: ASTQISDPQEGRRSANYQPSVWTYNYLQSIVAGEGRQSRREVEQQKEKVQILEEEVRGALNDEKAETFTIFATVDDIQRLGLGDHFEEDISNALRRCVSKGAVFMSLQKSLHGTALGFRLLRQHGYEVSQDVFKIFLDESGSFVKTLGGDVQGVLSLYEASHLAFEEEDILHKARSFAIKHLENLNSDVDKDLQDQVKHELELPLHRRMPLLEARRSIEAYSRREYTNPQILELALTDFNVSQSTLQRDLQEMLGWWNNTGLAKRLSFARDRLIECFFWAVGIAHEPSLSICRKAVTKAFALILVLDDVYDVFGTLEELELFTEAVRRWDLNAVEDLPVYMKLCYLALYNSVNEMAYETLKEKGENVIPYLAKAWYDLCKAFLQEAKWSNSRIIPGVEEYLNNGWVSSSGSVMLIHAYFLASPSIRKEELESLEHYHDLLRLPSLIFRLTNDIASSSAELERGETTNSIRCFMQEKGISELEARECVKEEIDTAWKKMNKYMVDRSTFNQSFVRMTYNLARMAHCVYQDGDAIGSPDDLSWNRVHSLIIKPISPAA
Km [1]: 40 mM
kcat [1]: 1.6e-05 s⁻¹
Km [2]: 60 mM
kcat [2]: 0.00056 s⁻¹

B2: Escherichia coli 4-methyl-5-(2-hydroxyethyl)thiazole kinase (hydroxyethylthiazole kinase, EC 2.7.1.50) (Escherichia coli K-12) (protein)
chain: MQVDLLGSAQSAHALHLFHQHSPLVHCMTNDVVQTFTANTLLALGASPAMVIETEEASQFAAIASALLINVGTLTQPRAQAMRAAVEQAKSSQTPWTLDPVAVGALDYRRHFCHELLSFKPAAIRGNASEIMALAGIANGGRGVDTTDAAANAIPAAQTLARETGAIVVVTGEMDYVTDGHRIIGIHGGDPLMTKVVGTGCALSAVVAACCALPGDTLENVASACHWMKQAGERAVARSEGPGSFVPHFLDALWQLTQEVQA
Km [3]: 3 mM
kcat [3]: 0.05 s⁻¹
kcat/Km [3]: 16 M⁻¹ s⁻¹
Km [4]: 7.5 mM
kcat [4]: 1 s⁻¹
kcat/Km [4]: 130 M⁻¹ s⁻¹

B3: Rhizobium leguminosarum 4-methyl-5-(2-hydroxyethyl)thiazole kinase (hydroxyethylthiazole kinase, EC 2.7.1.50) (Rhizobium johnstonii 3841) (protein)
chain: MQTRTTPGAMLKAMREKPPLVQCITNYVAMNIAANVLLAAGASPAMVHAAEEAGEFAAIASALTINIGTLSTQWIDGMQAAAKAATSAGKPWVLDPVAHYATAFRRNAVAELLALKPTIIRGNASEIIALAGGESRGQGVDSRDPVEQAEGSARWLAERQRAVVAVTGAVDFVTDGERAVRIEGGSALMPQVTALGCSLTCLVGAFAATAPEDIFGATVAALSTFAIAGEEAALGAAGPGSFSWRFLDALAALDAETLDARARISAA
Km [5]: 10 mM
kcat [5]: 0.01 s⁻¹
kcat/Km [5]: 1 M⁻¹ s⁻¹
Km [6]: 10 mM
kcat [6]: 0.8 s⁻¹
kcat/Km [6]: 80 M⁻¹ s⁻¹

B4: Bacillus subtilis 4-methyl-5-(2-hydroxyethyl)thiazole kinase (hydroxyethylthiazole kinase, EC 2.7.1.50) (Bacillus subtilis subsp. subtilis str. 168) (protein)
chain: MDAQSAAKCLTAVRRHSPLVHSITNNVVTNFTANGLLALGASPVMAYAKEEVADMAKIAGALVLNIGTLSKESVEAMIIAGKSANEHGVPVILDPVGAGATPFRTESARDIIREVRLAAIRGNAAEIAHTVGVTDWLIKGVDAGEGGGDIIRLAQQAAQKLNTVIAITGEVDVIADTSHVYTLHNGHKLLTKVTGAGCLLTSVVGAFCAVEENPLFAAIAAISSYGVAAQLAAQQTADKGPGSFQIELLNKLSTVTEQDVQEWATIERVTVS
notes: homotrimer
Km [7]: 3 mM
kcat [7]: 0.03 s⁻¹
kcat/Km [7]: 10 M⁻¹ s⁻¹
Km [8]: 3 mM
kcat [8]: 0.006 s⁻¹
kcat/Km [8]: 2 M⁻¹ s⁻¹

B5: monoterpene synthase from E. globulus: purified monoterpene synthase of Eucalyptus globulus (UniProt Q0PCI4, SEQ ID NO: 6) (protein, listed as Eucalyptus globulus)
chain: MALRLLFTPHLPVLSSRRANGRVRCSASTQISDPQEGRRSANYQPSVWTYNYLQSIVAGEGRQSRREVEQQKEKVQILEEEVRGALNDEKAETFTIFATVDDIQRLGLGDHFEEDISNALRRCVSKGAVFMSLQKSLHGTALGFRLLRQHGYEVSQDVFKIFLDESGSFVKTLGGDVQGVLSLYEASHLAFEEEDILHKARSFAIKHLENLNSDVDKDLQDQVKHELELPLHRRMPLLEARRSIEAYSRREYTNPQILELALTDFNVSQSTLQRDLQEMLGWWNNTGLAKRLSFARDRLIECFFWAVGIAHEPSLSICRKAVTKAFALILVLDDVYDVFGTLEELELFTEAVRRWDLNAVEDLPVYMKLCYLALYNSVNEMAYETLKEKGENVIPYLAKAWYDLCKAFLQEAKWSNSRIIPGVEEYLNNGWVSSSGSVMLIHAYFLASPSIRKEELESLEHYHDLLRLPSLIFRLTNDIASSSAELERGETTNSIRCFMQEKGISELEARECVKEEIDTAWKKMNKYMVDRSTFNQSFVRMTYNLARMAHCVYQDGDAIGSPDDLSWNRVHSLIIKPISPAA
Isoprene production from isoprenyl monophosphate [9]: isoprene produced
